According to US20250188133A1, “CHIMERIC BACTERIOCINS AND METHOD FOR THE CONTROL OF PSEUDOMONAS” (priority 2022, published 2025):
Where “and” joins values, the source holds several entries; their conditions need not be identical. Equal entries are not always repeated.

How the values were obtained:
P. aeruginosa ATCC 27853 = assay: murine lung colonization and treatment (CD1 mice); type: in vivo; details: 5 h post infection
Experimental: CD1 male mice were supplied by Charles River (Margate, UK) and were specific pathogen free. Mice were 11 to 15 g on receipt at the facility and were allowed to acclimatize for at least 7 days.
P. aeruginosa ATCC 27853 was recovered from long-term storage (−80° C.) and cultured on cystine-lactose-electrolyte-deficient (CLED) agar at 37° C. under aerobic conditions for approximately 16-24 h. 20 ml of Mueller Hinton broth was inoculated with a single well isolated colony and cultured overnight at 37° C. with shaking at 300 rpm65. The overnight broth was diluted 1:100 in Mueller Hinton broth and 100 ml was cultured in a baffle flask for ˜6 h at 37° C. with shaking at 300 rpm until the broth OD was ˜0.6 (˜mid-exponential phase). 20 ml of culture was centrifuged at 2465 g for 10 minutes and washed in PBS. The pellet was suspended in PBS and the OD600 adjusted to 0.67 (˜2.6×10^8 CFU/ml). The study inoculum was prepared from this by appropriate dilution with PBS. The inoculum concentration was confirmed by quantitative culture on Pseudomonas Selective Agar (PSA). The inoculum concentration for the study was 1.47×10^7 CFU/ml (5.87×10^5 CFU/mouse).
Mice were infected under temporary inhaled 3% isoflurane anesthesia by intranasal (IN) instillation with 40 μl of the inoculum suspension split as 20 μl/nostril.
1 hour post infection 6 mice were sacrificed in order to evaluate the pre-treatment burden in lungs. Treatments were administered IN once at 1 h post infection (50 μl split to 25 μl/nares). Three treatment groups consisting of six mice each were administered S5-PmnH (2.5, 25 and 250 μg). The fourth group of mice (n=6) was administered 200 μg Tobramycin (40 mg/ml injection solution, Hospira UK Ltd, diluted 10 times). The study was terminated at 5 hours post infection for all animals. The clinical conditions and weights were assessed and animals were immediately euthanized using an overdose of pentobarbitone. Following confirmation of death, the lungs were excised and homogenized in ice cold sterile phosphate buffered saline using a Precellys bead beater. The homogenates were quantitatively cultured onto PSA agar and incubated at 37° C. for 24 hours before colonies were counted.

P. aeruginosa strains = assay: agar disc-diffusion assay, panel of 25 strains; type: cell-based
In short: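 Purified pyocin (0.3, 3 or 30 μg) was applied to 6 mm discs laid on lawns of P. aeruginosa prepared from 100×-diluted OD595=1.0 CAA cultures. Growth inhibition zones were recorded after overnight incubation at 37° C.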

P. aeruginosa ATCC 19660 = assay: murine keratitis model, cytotoxic strain (C57BL/6 mice); type: in vivo; details: for viable bacteria isolated, one mouse: only mouse with viable bacteria
Experimental: (§1) The inbred mice of C57BL/6 strain of both sexes in equivalent numbers were used for the research. 2-6 months old, adult female and adult male mice were purchased from the Vilnius University vivarium of laboratory animals. The animals throughout the period of the experiment were given standard chow and drinking water ad libitum. Animals were housed in the individual plastic cages in a 12 h light/dark cycle at 21-23° C. All regulated procedures on living animals were approved by The Lithuanian Ethics Committee of Biomedical Research (Protocol no. B1-442) and were carried out in accordance with the European Union legislation of OECD (directive 2010/63/EU). The experiments were carried out in Biological research center of Lithuanian University of Health Sciences.
(§2) For P. aeruginosa infection and keratitis induction the mice were anesthetized by Ketamine and Xylazine 90:9 mg/kg intraperitoneal injection. The cornea of the left eye of each mouse was visualized under a stereoscopic microscope, and three 1 mm scratches were made using a sterile 25 gauge needle. A 10 μL aliquot containing 4×10^6 cells of P. aeruginosa ATCC 19660 (cytotoxic strain) or PAO1 ATCC 15692 (invasive strain) was applied to the corneal surface. Depending on the experiment, the treatment was started 30 min or 6 h post infection. 10 μl aliquot containing 0.14 mg of tobramycin or 20 μg of S5-PmnH (both containing 0.5% hydroxypropyl methylcellulose (HPMC)) or PBS containing 0.5% HPMC was applied as one drop of substance to the each eye. HPMC is used as artificial tears and was used in order to thicken the tears film and prolong the presence of the applied product on the surface of the cornea. The treatment was continued for five days twice daily. Mice were euthanized by cervical dislocation 1, 3, 5 days post infection, and the eyeballs were collected and homogenized for viable bacteria count.
(§3) The eyes were examined and photographed with a dissection microscope equipped with a digital camera at 1, 3 and 5 dpi to monitor the disease progression. At 1, 3 and 5 dpi disease severity was visually graded by using an established corneal damage scale: 0, the pupil was partially or fully covered by clear or slight opacity; +1, the anterior segment was partially or fully covered by slight opacity; +2, the pupil was partially or fully covered by dense opacity; +3, the entire anterior segment was covered by dense opacity; and +4, corneal perforation^40.
(§4) Histopathology experiments were carried out at Lithuanian University of Health Sciences, Department of Veterinary Pathobiology of Veterinary Academy. One randomly chosen mice of each study group was used for histopathology experiments. Enucleated eyes were preserved in 10% formaldehyde. Eyes were paraffin-embedded, cut into 3-μm-thick sections, deparaffinised, rehydrated and used for preparation of hematoxylin/eosin stained samples.

P. aeruginosa PAO1 = assay: murine keratitis model, invasive strain (C57BL/6 mice); type: in vivo
Experimental: as §1, §2, §3, §4

[1] = treatment started 30 min post infection
[2] = treatment started 6 h post infection, 1 dpi

B1: S5-PmnH (protein)
chain: MSNDNEVPGSMVIVAQGPDDQYAYEVPPIDSAAVAGNMFGDLIQREIYLQKNIYYPVRSIFEQGTKEKKEINKKVSDQVDGLLKQITQGKREATRQERVDVMSAVLHKMESDLEGYKKTFTKGPFIDYEKQSSLSIYEAWVKIWEKNSWEERKKYPFQQLVRDELERAVAYYKQDSLSEAVKVLRQELNKQKALKEKEDLSQLERDYRTRKANLEMKVQSELDQAGSALPPLVSPTPEQWLERATRLVTQAIADKKQLQTTNNTLIKNSPTPLEKQKAIYNGELLVDEIASLQARLVKLNAETTRRRTEKELTPDEKAAYTDAVSFVSTANEQMLQKYGANLSKVAQDMQAEIAGKKVRSYAEAMATFEKISANPAMKLNALDTQAVVDALNALDKASFADNITRLGKAFGVVGKVVQAEAIREKTVSGFQTGDWKPLMLELEAMAVGTGAGILLATSMAFFFPVFASAAAGVVVVALMMAATAAYFDAAKVDEINNLILN
modifications: Chimeric S5-PmnH
reduction of lung burden vs vehicle (P. aeruginosa ATCC 27853; 2.5 μg/mouse IN once 1 h post infection): 2.1 log10 CFU/g | reduction of burden below the level of stasis (pre-treatment) (P. aeruginosa ATCC 27853; 2.5 μg/mouse IN once): 0.58 log10 CFU/g | reduction of lung burden vs vehicle (P. aeruginosa ATCC 27853; 25 μg/mouse IN once 1 h post infection): 2.31 log10 CFU/g | reduction of burden below the level of stasis (pre-treatment) (P. aeruginosa ATCC 27853; 25 μg/mouse IN once): 0.78 log10 CFU/g | reduction of lung burden vs vehicle (P. aeruginosa ATCC 27853; 250 μg/mouse IN once 1 h post infection): 2.66 log10 CFU/g | reduction of burden below the level of stasis (pre-treatment) (P. aeruginosa ATCC 27853; 250 μg/mouse IN once): 1.13 log10 CFU/g | inhibition on lawns of S5 producer strains HP6 and HP7 (P. aeruginosa strains; clinical isolates HP6 and HP7, S5 gave turbid zones with 3 μg and 30 μg): significantly larger and clearer than those formed by S5 | activity spectrum / profile in agar disc diffusion assay (P. aeruginosa strains; panel of 25 P. aeruginosa strains, in words): broadened activity spectrum in comparison to pyocin S5 | inhibition zones on lawns of S5-producing strains (P. aeruginosa strains; six pyocin S5 and immunity gene-positive strains (PA14, PAO1, HP6, HP7, ATCC 19660, NCTC 13921)): formed inhibition zones on the lawns of all six S5-producing strains | histopathology of infected treated eyes (P. aeruginosa ATCC 19660; [1]): Only weak oedema in the corneal stroma | signs of disease (visual inspection, clinical score) (P. aeruginosa ATCC 19660; [1]): No signs of disease were observed in majority of samples | viable bacteria isolated from infected eyes (P. aeruginosa ATCC 19660; treatment started 30 min post infection, twice daily, 1, 3 or 5 dpi, 20 μg S5-PmnH or 0.14 mg tobramycin per eye): no viable P. aeruginosa were isolated | clinical score evaluation (P. aeruginosa ATCC 19660; treatment started 6 h post infection, 1 and 3 dpi, two S5-PmnH-treated and one tobramycin-treated mice): Only mild disease signs were observed | histopathology of infected treated eyes (P. aeruginosa ATCC 19660; [2]): signs of acute inflammation of cornea | viable bacteria isolated, one mouse (P. aeruginosa ATCC 19660; [2]): 3.6 log10 CFU/cornea | histopathology of infected treated eyes (P. aeruginosa ATCC 19660; treatment started 6 h post infection, 3 and 5 dpi): no marked aberrations | viable bacteria isolated, one mouse (P. aeruginosa ATCC 19660; treatment started 6 h post infection, 3 dpi): 5 log10 CFU/cornea | clinical score evaluation (P. aeruginosa ATCC 19660; treatment started 6 h post infection, 5 dpi): all corneas were completely clear | viable bacteria isolated (P. aeruginosa ATCC 19660; treatment started 6 h post infection, 5 dpi, three mice): No viable bacteria were isolated | histological examination of infected treated eyes (P. aeruginosa PAO1; 1 dpi): signs of acute inflammation of cornea | histological examination of infected treated eyes (P. aeruginosa PAO1; 3 dpi): signs of acute inflammation of cornea | histological examination of infected treated eyes (P. aeruginosa PAO1; day 5): no aberrations | average reduction of bacterial burden vs mock-treated (P. aeruginosa PAO1; [2]): 1.04 log 10 CFU/cornea | viable bacteria in cornea, individual mouse (P. aeruginosa PAO1; treatment started 6 h post infection, 3 dpi, third mouse): 2.38 log 10 CFU | mice from which no viable bacteria were isolated (P. aeruginosa PAO1; treatment started 6 h post infection, 3 dpi, three mice per group): two | viable bacteria in cornea, individual mice (P. aeruginosa PAO1; treatment started 6 h post infection, 5 dpi, mice with bacteria): 5.14 log 10 CFU/cornea and 3.34 log 10 CFU/cornea | mice from which no bacteria were isolated (P. aeruginosa PAO1; treatment started 6 h post infection, 5 dpi, three mice per group): one
